One experiment deals with RNase B. Put plainly: Protein Panel Profiling (3P), MSD ECL, coated antigen, IgG 10 nM.
For another experiment, the target named is Amyloglycosidase. The description is as above.
The target of experiment [1] is T1, Cell surface rec. 3_Fc (h).
T1 construct: identity not disclosed
The experiment is described as above.
Protocol: (§1) 32 different proteins and controls were coated on two 384-well MSD standard plates at a concentration of 1.0 μg/mL at 4° C. over night. The coating solution was discarded and plates were blocked with 50 μL 3% (w/v) BSA in PBS for one hour at RT on a microtiter plate shaker (˜500 rpm) followed by three washing steps with 50 μL washing buffer (PBS with 0.05% (v/v) Tween 20). IgG samples were diluted to 100 nM and 10 nM in assay buffer (PBS with 0.5% (w/v) BSA, 0.05% (v/v) Tween 20). As controls, isotype control antibody MOR03207 (IgG1f_AEASS) and assay buffer were used. Samples and controls were added at 30 μL/well and incubated for three hours at RT on a microtiter plate shaker. The plates were washed three times and 30 μL detection antibody (ECL-labeled anti-human Fab) were added per well and incubated for one hour on a microtiter plate shaker (˜500 rpm). After washing the MSD plate and adding 35 μL/well MSD Read Buffer T with surfactant, electro-chemiluminescence signals were detected using a SECTOR® Imager S600 instrument (Meso Scale Diagnostics).
(§2) For evaluation, binding signals of the antibody sample to a certain protein were divided by the respective binding signals of the reference antibody MOR03207 resulting in a binding ratio (BR). The cumulative binding ratio (CBR) of all proteins except the controls (25 in total) was then calculated: CBR up to 150 indicates an IgG without detectable unspecific binding. Values above 150 indicates an IgG with increased unspecific binding compared to the reference antibody MOR03207.

The target in experiment [2] is T2, Cell surface rec. 1_Lys (h).
T2 construct: identity not disclosed
The description is as above.
Protocol: as §1, §2

The target in the next experiment is Ovalbumin. Described as above.
Ovalbumin, sequence (P01012 2-386): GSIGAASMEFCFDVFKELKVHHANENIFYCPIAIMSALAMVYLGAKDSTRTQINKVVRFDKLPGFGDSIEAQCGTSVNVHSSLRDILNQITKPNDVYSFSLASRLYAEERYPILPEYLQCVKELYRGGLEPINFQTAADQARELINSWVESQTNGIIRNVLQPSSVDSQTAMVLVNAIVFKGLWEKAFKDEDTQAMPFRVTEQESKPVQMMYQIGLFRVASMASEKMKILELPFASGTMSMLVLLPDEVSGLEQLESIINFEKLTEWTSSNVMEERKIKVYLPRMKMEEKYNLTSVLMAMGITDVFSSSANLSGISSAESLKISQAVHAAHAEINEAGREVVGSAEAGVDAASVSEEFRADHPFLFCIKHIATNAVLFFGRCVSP
The target of a further experiment is Myoglobin. The description is as above.
The next experiment concerns the target T3, anti-human Fab (Dianova).
T3 construct: control of the 3P panel; it captures human IgG as such, so a ratio of 1 means a signal equal to that of MOR03207
The experiment is described as above.

The target of a further experiment is Fibrinogen (b) (bovine). The experiment is described as above.
Fibrinogen (b) (bovine), sequence (P02672 20-615, chain 1 of 3): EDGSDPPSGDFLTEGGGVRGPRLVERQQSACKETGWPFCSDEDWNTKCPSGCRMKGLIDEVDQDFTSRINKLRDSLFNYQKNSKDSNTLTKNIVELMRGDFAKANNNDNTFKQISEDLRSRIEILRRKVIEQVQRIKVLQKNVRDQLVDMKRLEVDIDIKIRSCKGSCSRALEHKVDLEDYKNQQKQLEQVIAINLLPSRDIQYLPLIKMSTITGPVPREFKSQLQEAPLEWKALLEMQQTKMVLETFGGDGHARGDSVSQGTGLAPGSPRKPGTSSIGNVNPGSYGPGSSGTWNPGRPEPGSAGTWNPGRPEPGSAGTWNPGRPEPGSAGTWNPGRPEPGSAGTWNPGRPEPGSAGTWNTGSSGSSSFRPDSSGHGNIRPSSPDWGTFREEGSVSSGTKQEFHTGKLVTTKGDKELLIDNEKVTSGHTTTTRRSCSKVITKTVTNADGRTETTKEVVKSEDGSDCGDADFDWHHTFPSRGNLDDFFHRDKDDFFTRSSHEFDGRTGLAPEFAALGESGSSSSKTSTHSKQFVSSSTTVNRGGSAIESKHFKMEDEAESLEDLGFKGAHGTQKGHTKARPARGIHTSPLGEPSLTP
Fibrinogen (b) (bovine), sequence (P02676 whole entry, chain 2 of 3, further chain): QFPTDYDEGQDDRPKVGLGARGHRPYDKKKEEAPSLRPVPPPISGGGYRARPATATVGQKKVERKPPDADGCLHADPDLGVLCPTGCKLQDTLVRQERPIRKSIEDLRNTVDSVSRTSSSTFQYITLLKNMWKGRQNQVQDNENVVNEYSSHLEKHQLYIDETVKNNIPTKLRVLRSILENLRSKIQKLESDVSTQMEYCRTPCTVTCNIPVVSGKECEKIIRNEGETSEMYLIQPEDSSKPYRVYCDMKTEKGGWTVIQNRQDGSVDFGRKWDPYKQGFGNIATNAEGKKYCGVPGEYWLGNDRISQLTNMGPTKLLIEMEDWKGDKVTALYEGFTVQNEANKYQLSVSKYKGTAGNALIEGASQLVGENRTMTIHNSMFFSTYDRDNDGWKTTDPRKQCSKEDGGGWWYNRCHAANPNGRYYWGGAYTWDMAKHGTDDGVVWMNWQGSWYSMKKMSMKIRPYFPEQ
Fibrinogen (b) (bovine), sequence (P12799 25-444, chain 3 of 3, further chain): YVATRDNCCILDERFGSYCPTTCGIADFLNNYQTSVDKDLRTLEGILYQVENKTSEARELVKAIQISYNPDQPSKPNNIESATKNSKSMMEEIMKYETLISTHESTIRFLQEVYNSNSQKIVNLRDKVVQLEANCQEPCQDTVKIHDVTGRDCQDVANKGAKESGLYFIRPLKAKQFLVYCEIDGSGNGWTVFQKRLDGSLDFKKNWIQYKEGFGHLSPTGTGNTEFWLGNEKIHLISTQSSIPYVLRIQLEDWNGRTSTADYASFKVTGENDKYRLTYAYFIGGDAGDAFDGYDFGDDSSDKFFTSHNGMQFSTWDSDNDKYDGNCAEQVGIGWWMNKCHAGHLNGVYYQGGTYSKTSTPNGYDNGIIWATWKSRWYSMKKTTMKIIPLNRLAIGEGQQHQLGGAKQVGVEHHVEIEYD
The target in the next experiment is Lectin. Described as above.
A further experiment addresses T4, Fc (h).
T4 construct: '(h)' on the sheet read as human
The experiment is described as above.

The target of experiment [3] is T5, full-length human ChemR23 expressed on CHO Flp-In cells (human, UniProt Q99788 1-373).
T5 construct: also called Chemokine-like receptor 1
T5 sequence: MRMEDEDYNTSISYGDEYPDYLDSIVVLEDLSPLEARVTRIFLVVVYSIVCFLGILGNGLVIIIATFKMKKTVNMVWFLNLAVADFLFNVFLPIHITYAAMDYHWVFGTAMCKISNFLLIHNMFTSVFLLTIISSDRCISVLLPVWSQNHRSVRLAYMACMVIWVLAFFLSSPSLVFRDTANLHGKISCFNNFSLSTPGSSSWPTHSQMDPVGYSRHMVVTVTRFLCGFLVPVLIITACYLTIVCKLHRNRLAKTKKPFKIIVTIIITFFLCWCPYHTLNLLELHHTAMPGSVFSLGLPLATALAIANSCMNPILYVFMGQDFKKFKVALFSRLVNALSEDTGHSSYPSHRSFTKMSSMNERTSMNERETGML
The experiment can be described thus: FACS, CHO Flp-In cells expressing human ChemR23, single IgG concentration. For orientation: Flow cytometry measures light scatter and fluorescence of single cells or particles in a stream.

Experiment [4] addresses T6, full-length human C3aR expressed on CHO Flp-In cells (human, UniProt Q16581 1-482).
T6 construct: also called C3a anaphylatoxin chemotactic receptor
T6 sequence: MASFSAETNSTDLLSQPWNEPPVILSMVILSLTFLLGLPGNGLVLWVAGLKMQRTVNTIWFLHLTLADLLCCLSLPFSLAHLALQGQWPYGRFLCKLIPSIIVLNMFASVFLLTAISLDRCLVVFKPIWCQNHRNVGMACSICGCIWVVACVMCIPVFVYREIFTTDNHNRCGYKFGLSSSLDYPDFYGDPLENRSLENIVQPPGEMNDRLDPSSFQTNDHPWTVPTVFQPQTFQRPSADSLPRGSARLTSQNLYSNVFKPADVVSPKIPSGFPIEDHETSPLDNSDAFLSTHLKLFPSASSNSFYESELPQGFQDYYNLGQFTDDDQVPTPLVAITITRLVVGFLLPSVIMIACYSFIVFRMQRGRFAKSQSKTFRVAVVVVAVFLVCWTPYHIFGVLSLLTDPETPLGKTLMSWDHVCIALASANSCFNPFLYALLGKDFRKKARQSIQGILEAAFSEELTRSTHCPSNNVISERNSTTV
The experiment can be described thus: FACS, CHO Flp-In cells expressing human C3aR, single IgG concentration.

In experiment [5] the target is T7, HIS6-human C5aR (N/N variant)-HV1B1-GAG (human).
T7 construct: also called huC5aR (N/N); human C5aR N/N variant on VLPs
Put plainly: ELISA on coated VLPs, IgG titration (N = 2). (In general: In an ELISA, binding on a coated surface is turned into a signal by an enzyme label.)

The target in experiment [6] is T8, HIS6-human C5aR (D/K variant)-HV1B1-GAG (human).
T8 construct: the VLPs were coated for ELISA; also called huC5aR (D/K); human C5aR D/K variant on VLPs
The experiment can be described thus: ELISA on coated VLPs, IgG titration (N = 2).

In experiment [7] the target is T9, full length cynomolgus C5aR stably expressed on CHO Flp-In cells (cynomolgus monkey (Macaca fascicularis)).
T9 chain: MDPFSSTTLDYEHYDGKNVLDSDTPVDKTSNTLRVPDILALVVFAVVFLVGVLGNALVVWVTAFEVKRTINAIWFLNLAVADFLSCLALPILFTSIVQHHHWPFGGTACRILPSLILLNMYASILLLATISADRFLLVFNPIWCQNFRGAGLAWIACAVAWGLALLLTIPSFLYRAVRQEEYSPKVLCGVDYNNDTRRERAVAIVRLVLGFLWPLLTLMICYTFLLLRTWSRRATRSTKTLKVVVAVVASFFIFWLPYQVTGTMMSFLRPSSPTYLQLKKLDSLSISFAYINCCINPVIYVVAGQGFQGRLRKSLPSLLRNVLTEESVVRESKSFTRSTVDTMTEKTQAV
The experiment can be described thus: FACS on Flp-In CHO cells, IgG titration.
Protocol: (§3) The C5aR-CHO Flp-In™ cell lines were blocked and IgGs were added either in serial dilutions or at a single (high) concentration of 300 nM. For detection of IgG binding, an R-phycoerythrin (R-PE) conjugated anti-human IgG (Fc-gamma fragment specific)2 antibody was added and fluorescence was measured using the FACS Array or Novocyte device.

The target in experiment [8] is T10, full length human C5aR stably expressed on CHO Flp-In cells (human, UniProt P21730 1-350).
T10 construct: also called human C5aR expressed on CHO cells
T10 sequence: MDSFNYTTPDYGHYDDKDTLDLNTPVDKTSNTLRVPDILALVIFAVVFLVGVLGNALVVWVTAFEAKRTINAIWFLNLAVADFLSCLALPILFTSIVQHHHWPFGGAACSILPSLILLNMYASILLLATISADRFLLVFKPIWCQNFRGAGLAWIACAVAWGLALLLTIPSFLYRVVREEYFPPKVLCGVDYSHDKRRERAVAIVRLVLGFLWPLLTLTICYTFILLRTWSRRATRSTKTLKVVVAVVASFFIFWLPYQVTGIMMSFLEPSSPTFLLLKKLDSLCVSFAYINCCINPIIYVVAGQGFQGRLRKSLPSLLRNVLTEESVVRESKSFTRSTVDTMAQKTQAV
Put plainly: FACS on Flp-In CHO cells, IgG titration.
Protocol: as §3

Changes are numbered by the printed parent chain.

RNase B, sequence (P61823 27-150): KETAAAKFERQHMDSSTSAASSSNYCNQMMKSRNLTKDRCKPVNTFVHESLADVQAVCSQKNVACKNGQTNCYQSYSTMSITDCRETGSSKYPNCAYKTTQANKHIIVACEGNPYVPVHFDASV
Protocol for Amyloglycosidase: as §1, §2
Protocol for Fibrinogen (b): as §1, §2
Protocol for Lectin: as §1, §2
Protocol for Myoglobin: as §1, §2
Protocol for Ovalbumin: as §1, §2
Protocol for RNase B: as §1, §2
Protocol for anti-human Fab (Dianova): as §1, §2

B1: MAB #2 (antibody, human IgG1, lambda)
heavy: EVQLVESGGGLVKPGGSLRLSCAASGFTFSSYAMHWVRQAPGKGLEWVGRIKSVAQGGTTDYAAHVKGRFTISRDDSKNTLYLQMNSLKTEDTAVYYCARVSHSTFDVWGQGTLVTVSSASTKGPSVFPLAPSSKSTSGGTAALGCLVKDYFPEPVTVSWNSGALTSGVHTFPAVLQSSGLYSLSSVVTVPSSSLGTQTYICNVNHKPSNTKVDKRVEPKSCDKTHTCPPCPAPEAEGAPSVFLFPPKPKDTLMISRTPEVTCVVVDVSHEDPEVKFNWYVDGVEVHNAKTKPREEQYNSTYRVVSVLTVLHQDWLNGKEYKCKVSNKALPSSIEKTISKAKGQPREPQVYTLPPSREEMTKNQVSLTCLVKGFYPSDIAVEWESNGQPENNYKTTPPVLDSDGSFFLYSKLTVDKSRWQQGNVFSCSVMHEALHNHYTQKSLSLSPGK
light: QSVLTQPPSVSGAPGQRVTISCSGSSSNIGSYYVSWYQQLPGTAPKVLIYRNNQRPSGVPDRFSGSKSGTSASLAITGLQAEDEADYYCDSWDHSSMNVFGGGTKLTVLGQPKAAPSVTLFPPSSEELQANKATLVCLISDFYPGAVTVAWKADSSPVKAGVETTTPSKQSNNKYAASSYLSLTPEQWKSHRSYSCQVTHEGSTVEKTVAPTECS
notes: lambda 1 light chain
For the molecule B1, the “binding ratio (signal / signal of MOR03207)” value in the experiment with RNase B came to 1; with Amyloglycosidase, 1; in experiment [1], 2; in [2] it was 1; in the experiment with Ovalbumin, 1; with Myoglobin it was 1. In addition, the “binding ratio (signal / signal of MOR03207)” value with anti-human Fab (Dianova), with Fibrinogen (b), in the experiment with Lectin and with Fc (h) was 1 each time. Besides, the binding result in experiment [3] and in [4] was “no binding (tested: 300 nM)” each time. Also, the EC50 in experiment [5] was determined as 0.5 nM; in experiment [6], 0.5 nM; in experiment [7], 1.4 nM; in experiment [8] it was 1.2 nM.

B2: MAB #1 (antibody, human IgG1, lambda)
heavy: B1 heavy with V54K, H103F
light: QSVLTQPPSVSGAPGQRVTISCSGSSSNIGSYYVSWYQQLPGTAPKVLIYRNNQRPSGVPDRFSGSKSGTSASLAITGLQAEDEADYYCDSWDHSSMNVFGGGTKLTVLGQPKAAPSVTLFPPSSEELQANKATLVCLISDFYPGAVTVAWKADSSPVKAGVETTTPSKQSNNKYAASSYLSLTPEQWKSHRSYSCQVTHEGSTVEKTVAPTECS
notes: lambda 1 light chain, VH3-15 framework
As for B2, the “binding ratio (signal / signal of MOR03207)” value in the experiment with RNase B turned out to be 1; with Amyloglycosidase, 1; in [1] it was 2; in experiment [2], 1; with Ovalbumin it was 1; with Myoglobin, 1. Further, the “binding ratio (signal / signal of MOR03207)” value with anti-human Fab (Dianova), with Fibrinogen (b), with Lectin and with Fc (h) was 1 throughout. For the same molecule, the binding result in experiment [3] and in experiment [4] was “no binding (tested: 300 nM)” each time. The half-maximal effective concentration (EC50) in [5] came out at 0.5 nM; in [6], 0.5 nM; in experiment [7], 1.1 nM; in experiment [8], 1.7 nM.

Broadly, the EC50 is the concentration needed to bring the measured effect to its halfway point.
